# Laboratory results as given in IntAct's records for PubMed 25281559.
# B1: Casein kinase I homolog HRR25 (Saccharomyces cerevisiae), P29295 (parent)
# chain: MDLRVGRKFRIGRKIGSGSFGDIYHGTNLISGEEVAIKLESIRSRHPQLDYESRVYRYLSGGVGIPFIRWFGREGEYNAMVIDLLGPSLEDLFNYCHRRFSFKTVIMLALQMFCRIQYIHGRSFIHRDIKPDNFLMGVGRRGSTVHVIDFGLSKKYRDFNTHRHIPYRENKSLTGTARYASVNTHLGIEQSRRDDLESLGYVLIYFCKGSLPWQGLKATTKKQKYDRIMEKKLNVSVETLCSGLPLEFQEYMAYCKNLKFDEKPDYLFLARLFKDLSIKLEYHNDHLFDWTMLRYTKAMVEKQRDLLIEKGDLNANSNAASASNSTDNKSETFNKIKLLAMKKFPTHFHYYKNEDKHNPSPEEIKQQTILNNNAASSLPEELLNALDKGMENLRQQQPQQQVQSSQPQPQPQQLQQQPNGQRPNYYPEPLLQQQQRDSQEQQQQVPMATTRATQYPPQINSNNFNTNQASVPPQMRSNPQQPPQDKPAGQSIWL
# partner: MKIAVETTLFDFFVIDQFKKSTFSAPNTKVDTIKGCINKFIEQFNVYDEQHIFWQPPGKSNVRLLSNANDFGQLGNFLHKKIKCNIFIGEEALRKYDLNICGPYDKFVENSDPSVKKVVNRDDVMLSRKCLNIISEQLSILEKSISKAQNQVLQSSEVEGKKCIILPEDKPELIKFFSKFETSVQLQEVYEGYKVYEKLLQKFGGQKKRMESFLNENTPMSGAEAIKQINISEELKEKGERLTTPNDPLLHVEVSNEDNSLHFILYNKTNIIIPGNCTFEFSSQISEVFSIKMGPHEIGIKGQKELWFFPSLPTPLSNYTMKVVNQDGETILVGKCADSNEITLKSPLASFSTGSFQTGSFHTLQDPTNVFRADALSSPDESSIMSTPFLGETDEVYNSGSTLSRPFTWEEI
# Variants of: B1
# Details: with atg34_yeast ATG34, Q12292
row,effect of a mutation on the interaction,Variant
1,disrupting interaction,MDLRVGRKFRIGRKIGSGSFGDIYHGTNLISGEEVAIALESIRSRHPQLDYESRVYRYLSGGVGIPFIRWFGREGEYNAMVIDLLGPSLEDLFNYCHRRFSFKTVIMLALQMFCRIQYIHGRSFIHRDIKPDNFLMGVGRRGSTVHVIDFGLSKKYRDFNTHRHIPYRENKSLTGTARYASVNTHLGIEQSRRDDLESLGYVLIYFCKGSLPWQGLKATTKKQKYDRIMEKKLNVSVETLCSGLPLEFQEYMAYCKNLKFDEKPDYLFLARLFKDLSIKLEYHNDHLFDWTMLRYTKAMVEKQRDLLIEKGDLNANSNAASASNSTDNKSETFNKIKLLAMKKFPTHFHYYKNEDKHNPSPEEIKQQTILNNNAASSLPEELLNALDKGMENLRQQQPQQQVQSSQPQPQPQQLQQQPNGQRPNYYPEPLLQQQQRDSQEQQQQVPMATTRATQYPPQINSNNFNTNQASVPPQMRSNPQQPPQDKPAGQSIWL [K38A]
